Assay results taken from the supplement of paper PMC10567573.

B1: PSD2 (parent)
chain: PLMGETQERERVLTHFSRRYCQCN
B2: KCNAB2 (parent)
chain: IPPYSRASLKGYQWLKDKILSEEG

Variants of: B1
Assay: protein stability index of a GFP-peptide fusion (GPS, HEK-293T) (PSI 1-6); higher = more stable
Conditions: c terminus: a fixed tail appended
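Also: lentivirally expressed fusions sorted by FACS into six bins by GFP to DsRed ratio, PSI derived from sequencing read proportions per bin multiplied by bin number.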

Protein stability index of substitutions, site by site:
C21: L 3.23, D 4.01, V 3.68, W 3.17, K 2.88
E10: L 2.27, H 2.23, F 2.19, K 2.58, Q 2.33, N 2.8, M 1.93, R 1.82
R11: W 2.19, S 2.53, M 2.64, E 3.98, L 3.11, V 3.46, T 3.06, H 3.73
M3: G 4, D 3.69, Y 2, H 3.22
T6: E 3.05, D 2.98, S 2.18, C 4.24, W 2.83, A 3.27, I 2.38, Y 2.33

Variants of: B2
Assay: as above
Conditions: c terminus: a fixed tail appended

Protein stability index: each site, then its substitutions
E22: D 2.68, A 2.74, K 1.75, T 1.97, W 2.74, P 2.48, V 1.22, G 1.68, N 2.26, Q 2.47, H 1.45, C 2.09, R 1.62, S 2.08, F 2.12
I19: N 2.86, F 2.21, A 2.57, V 3.17, L 2.86, E 4, T 3.4, Q 2.12, R 3.32, H 2.98, S 3.16, P 3.8, M 3.53, D 3.73, Y 2.58
K18: M 2.78, I 1.71, V 3.75, Y 2.05, W 1.39, G 2.95, S 3.17, L 1.6, E 2.95, C 2.51, P 2.83, H 1.98, T 2.11, A 2.63, R 1.02, N 3.29, Q 3.23, D 2.77, F 1.96
D17: G 2.03, S 1.6, L 1.93, R 1.91, Q 2.18, K 2.04, I 1.69, P 2.46, M 1.57, V 2.51, Y 1.8, H 2.69, T 1.68, W 1.72, N 2.39
E23: H 1.76, Q 2.39, M 2.31, A 3.77, S 4.83, Y 2.18, D 1.51, N 2, P 1.6, I 2.62, V 2.5, T 3.2, F 3.45, K 1.84, R 2.43
G24: K 2.61, A 2.31, P 1.95, M 2.56, L 1.43, W 1.35, H 2.09, Q 3.79, D 3.48, T 1.99, Y 1.48, C 2.06, I 1.81, R 1.47, S 2.49, V 1.77, N 2.05, F 1.99, E 3.1
L20: H 2.16, Y 2.51, Q 2.8, N 3.06, P 3.27, C 2.63, F 1.98, T 3.54, W 2.54, S 2.92, I 2.29, K 2.81, E 3.75, A 3.71, M 2.47, V 2, G 2.19, D 3.91
S21: L 2.19, F 2.28, N 2.02, Y 2.08, I 2.3, H 2.12, D 3.56, Q 3.31, K 3.24, R 1.68, W 3.22, A 2.8, V 1.67, C 2.42, T 2.31, P 2.45, G 1.86, M 2.43
